How the values were obtained:
[1] = target: AAV3B capsid (vector AAV2/3B.CB7.CI.ffluciferase.RBG) (adeno-associated virus 3B); experiment: AVB Sepharose HiTrap column, DPBS wash fraction; real-time PCR
[2] = target: AAV3B-NKDKLN capsid mutant (SPAKFA→NKDKLN) (adeno-associated virus 3B (engineered)); experiment: as above
[3] = target: AAV3B capsid (vector AAV2/3B.CB7.CI.ffluciferase.RBG) (adeno-associated virus 3B); experiment: AVB Sepharose HiTrap column, clarified culture supernatant, AAV3B vs AAV3B-NKDKLN head-to-head; real-time PCR
[4] = target: AAV3B-NKDKLN capsid mutant (SPAKFA→NKDKLN) (adeno-associated virus 3B (engineered)); experiment: as above
[5] = target: AAV9 capsid (vector, CB7.CI.ffluciferase.RBG) (adeno-associated virus 9); experiment: AVB Sepharose HiTrap column, clarified culture supernatant, wild type vs SPAKFA mutant head-to-head; real-time PCR
[6] = target: AAV8-SPAKFA capsid mutant (NQSKLN→SPAKFA) (adeno-associated virus 8 (engineered)); experiment: as above
[7] = target: rh.64R1-SPAKFA capsid mutant (NQAKLN→SPAKFA) (adeno-associated virus rh.64R1 (engineered)); experiment: as above
[8] = target: AAV9-SPAKFA capsid mutant (NKDKLN→SPAKFA) (adeno-associated virus 9 (engineered)); experiment: as above
[9] = target: AAV8 capsid (vector) (adeno-associated virus 8); experiment: as above
[10] = target: AAVrh64R1 capsid (vector) (adeno-associated virus rh.64R1); experiment: as above
[11] = target: AAV3B capsid (vector AAV2/3B.CB7.CI.ffluciferase.RBG) (adeno-associated virus 3B); experiment: AVB Sepharose HiTrap column, clarified AAV3B product; genome copies per fraction by real-time PCR
[12] = target: AAV3B capsid (vector AAV2/3B.CB7.CI.ffluciferase.RBG) (adeno-associated virus 3B); experiment: AVB Sepharose HiTrap column, unbound vector in flow-through; real-time PCR
[13] = target: AAV3B-NKDKLN capsid mutant (SPAKFA→NKDKLN) (adeno-associated virus 3B (engineered)); experiment: as above
[14] = target: AAV3B capsid (vector AAV2/3B.CB7.CI.ffluciferase.RBG) (adeno-associated virus 3B); experiment: AVB Sepharose HiTrap column, AVB.C (1 M NaCl) wash fraction; real-time PCR
[15] = target: AAV3B-NKDKLN capsid mutant (SPAKFA→NKDKLN) (adeno-associated virus 3B (engineered)); experiment: as above
[16] = target: AAVrh10 capsid (vector AAV2/AAVrh10.CMV.PI.Cre.RBG) (adeno-associated virus rh10); experiment: AVB Sepharose HiTrap column, purified vector mixes; genome copies per fraction by real-time PCR (average of two runs)
[17] = target: AAVhu37 capsid (vector AAV2/AAVhu37.TBG.EGFP.bGH) (adeno-associated virus hu37); experiment: AVB Sepharose HiTrap column, purified vector mix AAV8+AAVhu37+AAVrh10; genome copies per fraction by real-time PCR
[18] = target: AAV8 capsid (vector) (adeno-associated virus 8); experiment: as above
[19] = target: AAVrh64R1 capsid (vector) (adeno-associated virus rh.64R1); experiment: AVB Sepharose HiTrap column, purified vector mix AAVrh64R1+AAVrh10; genome copies per fraction by real-time PCR

AVB Sepharose High Performance affinity resin ligand: 14kD fragment from a single chain llama antibody expressed in yeast (VHH)
percent of vector genomes in wash 1 (W1) fraction [1]: 0% | percent of vector genomes in wash 1 (W1) fraction [2]: 0.1% | elution fraction yield [3]: 98% | elution fraction yield [4]: 87% | percent recovery of loaded vector in the elution fraction (of total fractions) [5]: 0.6% | percent recovery of loaded vector in the elution fraction (of total fractions) [6]: 93% | percent recovery of loaded vector in the elution fraction (of total fractions) [7]: 91% | percent recovery of loaded vector in the elution fraction (of total fractions) [8]: 51% | percent recovery of loaded vector in the elution fraction (of total fractions) [9]: 30% | percent recovery of loaded vector in the elution fraction (of total fractions) [10]: 18% | percent of vector genomes recovered in the elution fraction [11]: 98% | percent of vector genomes in flow-through (FT) fraction [12]: 1.3% | percent of vector genomes in flow-through (FT) fraction [13]: 8.2% | percent of vector genomes in wash 2 (W2) fraction [14]: 0.3% | percent of vector genomes in wash 2 (W2) fraction [15]: 4.6% | percent of loaded vector genome in the elution fraction [16]: 84% | percent of loaded vector genome in the elution fraction [17]: 82% | percent of loaded vector genome in the elution fraction [18]: 20% | percent of loaded vector genome in the elution fraction [19]: 22%

— patent publication US20180216133A1
